Ends that are not written are not given here. * marks the point of attachment. C16 diacid = O=C(O)CCCCCCCCCCCCCCC(=O)*
T1: human GIP receptor (human, UniProt P48546 22-466)
T1 sequence (looked up): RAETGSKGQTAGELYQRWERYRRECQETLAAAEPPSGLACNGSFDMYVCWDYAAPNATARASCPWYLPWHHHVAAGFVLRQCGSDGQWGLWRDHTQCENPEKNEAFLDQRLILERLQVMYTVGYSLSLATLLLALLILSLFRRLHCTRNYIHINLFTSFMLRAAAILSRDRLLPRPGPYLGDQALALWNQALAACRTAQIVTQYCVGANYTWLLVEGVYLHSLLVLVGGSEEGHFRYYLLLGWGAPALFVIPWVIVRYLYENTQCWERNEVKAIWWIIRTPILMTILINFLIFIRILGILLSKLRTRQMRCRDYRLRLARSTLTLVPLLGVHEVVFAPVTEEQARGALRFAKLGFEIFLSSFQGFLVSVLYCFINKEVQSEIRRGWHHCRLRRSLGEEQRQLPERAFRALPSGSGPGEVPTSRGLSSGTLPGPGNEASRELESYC

B1: AT307 [hGIP(3-30)NH2[I17K]-C16diacid/17] (peptide)
peptide: EGTFISDYSIAMDKK(C16 diacid)HQQDFVNWLLAQK-NH2
modifications: N-terminus assumed
SMILES: CC[C@H](C)[C@H](NC(=O)[C@H](CO)NC(=O)[C@H](Cc1ccc(O)cc1)NC(=O)[C@H](CC(=O)O)NC(=O)[C@H](CO)NC(=O)[C@@H](NC(=O)[C@H](Cc1ccccc1)NC(=O)[C@@H](NC(=O)CNC(=O)[C@@H](N)CCC(=O)O)[C@@H](C)O)[C@@H](C)CC)C(=O)N[C@@H](C)C(=O)N[C@@H](CCSC)C(=O)N[C@@H](CC(=O)O)C(=O)N[C@@H](CCCCN)C(=O)N[C@@H](CCCCNC(=O)CCCCCCCCCCCCCCC(=O)O)C(=O)N[C@@H](Cc1c[nH]cn1)C(=O)N[C@@H](CCC(N)=O)C(=O)N[C@@H](CCC(N)=O)C(=O)N[C@@H](CC(=O)O)C(=O)N[C@@H](Cc1ccccc1)C(=O)N[C@H](C(=O)N[C@@H](CC(N)=O)C(=O)N[C@@H](Cc1c[nH]c2ccccc12)C(=O)N[C@@H](CC(C)C)C(=O)N[C@@H](CC(C)C)C(=O)N[C@@H](C)C(=O)N[C@@H](CCC(N)=O)C(=O)N[C@@H](CCCCN)C(N)=O)C(C)C
B2: AT306 [hGIP(3-30)NH2[D15K]-C16diacid/15] (peptide)
peptide: EGTFISDYSIAMK(C16 diacid)KIHQQDFVNWLLAQK-NH2
modifications: N-terminus assumed
SMILES: CC[C@H](C)[C@H](NC(=O)[C@H](CO)NC(=O)[C@H](Cc1ccc(O)cc1)NC(=O)[C@H](CC(=O)O)NC(=O)[C@H](CO)NC(=O)[C@@H](NC(=O)[C@H](Cc1ccccc1)NC(=O)[C@@H](NC(=O)CNC(=O)[C@@H](N)CCC(=O)O)[C@@H](C)O)[C@@H](C)CC)C(=O)N[C@@H](C)C(=O)N[C@@H](CCSC)C(=O)N[C@@H](CCCCNC(=O)CCCCCCCCCCCCCCC(=O)O)C(=O)N[C@@H](CCCCN)C(=O)N[C@H](C(=O)N[C@@H](Cc1c[nH]cn1)C(=O)N[C@@H](CCC(N)=O)C(=O)N[C@@H](CCC(N)=O)C(=O)N[C@@H](CC(=O)O)C(=O)N[C@@H](Cc1ccccc1)C(=O)N[C@H](C(=O)N[C@@H](CC(N)=O)C(=O)N[C@@H](Cc1c[nH]c2ccccc12)C(=O)N[C@@H](CC(C)C)C(=O)N[C@@H](CC(C)C)C(=O)N[C@@H](C)C(=O)N[C@@H](CCC(N)=O)C(=O)N[C@@H](CCCCN)C(N)=O)C(C)C)[C@@H](C)CC
B3: AT308 [hGIP(3-30)NH2[Q19K]-C16diacid/19] (peptide)
peptide: EGTFISDYSIAMDKIHK(C16 diacid)QDFVNWLLAQK-NH2
modifications: N-terminus assumed
SMILES: CC[C@H](C)[C@H](NC(=O)[C@H](CO)NC(=O)[C@H](Cc1ccc(O)cc1)NC(=O)[C@H](CC(=O)O)NC(=O)[C@H](CO)NC(=O)[C@@H](NC(=O)[C@H](Cc1ccccc1)NC(=O)[C@@H](NC(=O)CNC(=O)[C@@H](N)CCC(=O)O)[C@@H](C)O)[C@@H](C)CC)C(=O)N[C@@H](C)C(=O)N[C@@H](CCSC)C(=O)N[C@@H](CC(=O)O)C(=O)N[C@@H](CCCCN)C(=O)N[C@H](C(=O)N[C@@H](Cc1c[nH]cn1)C(=O)N[C@@H](CCCCNC(=O)CCCCCCCCCCCCCCC(=O)O)C(=O)N[C@@H](CCC(N)=O)C(=O)N[C@@H](CC(=O)O)C(=O)N[C@@H](Cc1ccccc1)C(=O)N[C@H](C(=O)N[C@@H](CC(N)=O)C(=O)N[C@@H](Cc1c[nH]c2ccccc12)C(=O)N[C@@H](CC(C)C)C(=O)N[C@@H](CC(C)C)C(=O)N[C@@H](C)C(=O)N[C@@H](CCC(N)=O)C(=O)N[C@@H](CCCCN)C(N)=O)C(C)C)[C@@H](C)CC
B4: AT303 [hGIP(3-30)NH2[I12K]-C16diacid/12] (peptide)
peptide: EGTFISDYSK(C16 diacid)AMDKIHQQDFVNWLLAQK-NH2
modifications: N-terminus assumed
SMILES: CC[C@H](C)[C@H](NC(=O)[C@H](CCCCN)NC(=O)[C@H](CC(=O)O)NC(=O)[C@H](CCSC)NC(=O)[C@H](C)NC(=O)[C@H](CCCCNC(=O)CCCCCCCCCCCCCCC(=O)O)NC(=O)[C@H](CO)NC(=O)[C@H](Cc1ccc(O)cc1)NC(=O)[C@H](CC(=O)O)NC(=O)[C@H](CO)NC(=O)[C@@H](NC(=O)[C@H](Cc1ccccc1)NC(=O)[C@@H](NC(=O)CNC(=O)[C@@H](N)CCC(=O)O)[C@@H](C)O)[C@@H](C)CC)C(=O)N[C@@H](Cc1c[nH]cn1)C(=O)N[C@@H](CCC(N)=O)C(=O)N[C@@H](CCC(N)=O)C(=O)N[C@@H](CC(=O)O)C(=O)N[C@@H](Cc1ccccc1)C(=O)N[C@H](C(=O)N[C@@H](CC(N)=O)C(=O)N[C@@H](Cc1c[nH]c2ccccc12)C(=O)N[C@@H](CC(C)C)C(=O)N[C@@H](CC(C)C)C(=O)N[C@@H](C)C(=O)N[C@@H](CCC(N)=O)C(=O)N[C@@H](CCCCN)C(N)=O)C(C)C
B5: AT304 [hGIP(3-30)NH2[A13K]-C16diacid/13] (peptide)
peptide: EGTFISDYSIK(C16 diacid)MDKIHQQDFVNWLLAQK-NH2
modifications: N-terminus assumed
SMILES: CC[C@H](C)[C@H](NC(=O)[C@H](CCCCN)NC(=O)[C@H](CC(=O)O)NC(=O)[C@H](CCSC)NC(=O)[C@H](CCCCNC(=O)CCCCCCCCCCCCCCC(=O)O)NC(=O)[C@@H](NC(=O)[C@H](CO)NC(=O)[C@H](Cc1ccc(O)cc1)NC(=O)[C@H](CC(=O)O)NC(=O)[C@H](CO)NC(=O)[C@@H](NC(=O)[C@H](Cc1ccccc1)NC(=O)[C@@H](NC(=O)CNC(=O)[C@@H](N)CCC(=O)O)[C@@H](C)O)[C@@H](C)CC)[C@@H](C)CC)C(=O)N[C@@H](Cc1c[nH]cn1)C(=O)N[C@@H](CCC(N)=O)C(=O)N[C@@H](CCC(N)=O)C(=O)N[C@@H](CC(=O)O)C(=O)N[C@@H](Cc1ccccc1)C(=O)N[C@H](C(=O)N[C@@H](CC(N)=O)C(=O)N[C@@H](Cc1c[nH]c2ccccc12)C(=O)N[C@@H](CC(C)C)C(=O)N[C@@H](CC(C)C)C(=O)N[C@@H](C)C(=O)N[C@@H](CCC(N)=O)C(=O)N[C@@H](CCCCN)C(N)=O)C(C)C
B6: AT305 [hGIP(3-30)NH2[M14K]-C16diacid/14] (peptide)
peptide: EGTFISDYSIAK(C16 diacid)DKIHQQDFVNWLLAQK-NH2
modifications: N-terminus assumed
SMILES: CC[C@H](C)[C@H](NC(=O)[C@H](CO)NC(=O)[C@H](Cc1ccc(O)cc1)NC(=O)[C@H](CC(=O)O)NC(=O)[C@H](CO)NC(=O)[C@@H](NC(=O)[C@H](Cc1ccccc1)NC(=O)[C@@H](NC(=O)CNC(=O)[C@@H](N)CCC(=O)O)[C@@H](C)O)[C@@H](C)CC)C(=O)N[C@@H](C)C(=O)N[C@@H](CCCCNC(=O)CCCCCCCCCCCCCCC(=O)O)C(=O)N[C@@H](CC(=O)O)C(=O)N[C@@H](CCCCN)C(=O)N[C@H](C(=O)N[C@@H](Cc1c[nH]cn1)C(=O)N[C@@H](CCC(N)=O)C(=O)N[C@@H](CCC(N)=O)C(=O)N[C@@H](CC(=O)O)C(=O)N[C@@H](Cc1ccccc1)C(=O)N[C@H](C(=O)N[C@@H](CC(N)=O)C(=O)N[C@@H](Cc1c[nH]c2ccccc12)C(=O)N[C@@H](CC(C)C)C(=O)N[C@@H](CC(C)C)C(=O)N[C@@H](C)C(=O)N[C@@H](CCC(N)=O)C(=O)N[C@@H](CCCCN)C(N)=O)C(C)C)[C@@H](C)CC
B7: AT302 [hGIP(3-30)NH2[S11K]-C16diacid/11] (peptide)
peptide: EGTFISDYK(C16 diacid)IAMDKIHQQDFVNWLLAQK-NH2
modifications: N-terminus assumed
SMILES: CC[C@H](C)[C@H](NC(=O)[C@H](CCCCNC(=O)CCCCCCCCCCCCCCC(=O)O)NC(=O)[C@H](Cc1ccc(O)cc1)NC(=O)[C@H](CC(=O)O)NC(=O)[C@H](CO)NC(=O)[C@@H](NC(=O)[C@H](Cc1ccccc1)NC(=O)[C@@H](NC(=O)CNC(=O)[C@@H](N)CCC(=O)O)[C@@H](C)O)[C@@H](C)CC)C(=O)N[C@@H](C)C(=O)N[C@@H](CCSC)C(=O)N[C@@H](CC(=O)O)C(=O)N[C@@H](CCCCN)C(=O)N[C@H](C(=O)N[C@@H](Cc1c[nH]cn1)C(=O)N[C@@H](CCC(N)=O)C(=O)N[C@@H](CCC(N)=O)C(=O)N[C@@H](CC(=O)O)C(=O)N[C@@H](Cc1ccccc1)C(=O)N[C@H](C(=O)N[C@@H](CC(N)=O)C(=O)N[C@@H](Cc1c[nH]c2ccccc12)C(=O)N[C@@H](CC(C)C)C(=O)N[C@@H](CC(C)C)C(=O)N[C@@H](C)C(=O)N[C@@H](CCC(N)=O)C(=O)N[C@@H](CCCCN)C(N)=O)C(C)C)[C@@H](C)CC

Target: T1, human GIP receptor
Experiment: cell-based or functional assay

Binder	cAMP agonism, EC50 (log) [log M]	cAMP agonism, Emax [%]	cAMP agonism, nM (EC50) [nM]	cAMP antagonism, log (IC50) [log M]	cAMP antagonism, nM (IC50) [nM]
B1	-7.9	4.9	14	-7	93
B2	-7.9	6.6	13	-7.3	53
B3	-7.5	7.9	34	-6.9	132
B4	-7.6	24.2	28	-7	90
B5	–	–	–	-6.7	199
EGTFISDYSIAMDK(C16 diacid)IHQQDFVNWLLAQK-NH2 [AT370 [hGIP(3-30)NH2-C16diacid/16]]	–	–	–	-7.6	24.9
B6	-8.1	12	8	-6.8	166
B7	–	–	–	-7.2	69
